This is an account of results in patent JP2020148511A (dated 2020).

Experiment [1] addresses A型インフルエンザウィルス亜型H1N1(A/Puerto Rico/8/1934)の核内タンパク質(NP抗原) (Influenza A virus H1N1 (A/Puerto …, UniProt P03466 1-498)). In words: sandwich ELISA, […] (capture) […].
Experiment [2] concerns the target H1N1インフルエンザウィルスA型(A/Puerto Rico/8/34/Mount Sinai)由来のリコンビナント核内タンパク質 (Influenza A virus H1N1 (A/Puerto …, UniProt P03466 1-498)). In words: phage ELISA, NP coated at 2 ug/mL, anti-M13 detection, A450.

B1: 抗体A1 (VHH antibody having the amino acid sequence of SEQ ID NO: 1) (VHH)
VHH: QLQLVESGGGLVQAGGSLRLSCAASGSAFSLYAMGWHRQAPGKQRELVAYITNGDITNYADSVQGRVIISRDNAKNTVYLHMNSLKPEDTAVYYCYAVGGRTFWGQGTQVTVSS
On to B1, for which the binding result in experiment [1] is given as “binds”.

B2: 抗体A2 (VHH antibody having the amino acid sequence of SEQ ID NO: 2) (VHH)
VHH: QVQLVESGGGLVQTGGPLRLSCAVSDRTDSNYAMGWFRQAPGKEREFVAAISGTGYVTGYADSARNRFTLSRDNGKNAVYLQMNSLEPADTAVYYCAATSDQRYPGPRSSGYDYWGQGTQVTVSS
In the case of B2, in experiment [1], the binding result is listed as “binds”.

B3: 抗体A4 (VHH antibody having the amino acid sequence of SEQ ID NO: 4) (VHH)
VHH: EVQLVESGGGLVQAGDSLRLSCAASGRTFINLDMGWFRQPPGKEREYVAAITRNGAITSYADSAKGRFTISRDNAKNTVSLEMNSLKPEDTGVYYCAAYSISNYGSGWYKPDYWGQGAQVTVSS
On to B3, for which the binding result in experiment [1] is listed as “binds”.

B4: 抗体A3 (VHH antibody having the amino acid sequence of SEQ ID NO: 3) (VHH)
VHH: EVQLVESGGGLVQPGGSLSLSCAASGFTFSNYYMGWFRQAPGKERQSLATVNSGGTGEAYADSIRGRFTISRDNAKNTVTLQMSSLQPEDTAVYYCARVDGRVLSTIVVSYDYWGQGTQVTVSS
For the molecule B4, the binding result in experiment [2] and in experiment [1] was “binds” each time.
